Laboratory results reported in publication PMC5218393 (PLoS ONE, 2017).
Residue numbers refer to the chain shown, from its start.

B1: A1 (antibody, V domains shown)
VH: QVQLVQSGAEVRRPGSSVRISCRTSGGTFNNYALSWVRQAPGQGLEWMGGIIPIVGTAVYAEKFEDSVTVTADESASTAYMEVRSLRSEDTAVYYCATGEKFVSPWFGDLPLHHWGQGTLVTVSS
VL: QSVLTQPPSVSGAPGQRVTISCTGSSSNIGAPYDVHWYQQVPGTAPKLLIYGNTNRPSRVPDRFSGSKSGTSASLAITGLQADDEADYYCQSYDRSLGGSIFGGGTKLTVL
B2: A4 (antibody, V domains shown)
VH: B1 VH
VL: B1 VL with R59G
B3: B8 (antibody, V domains shown)
VH: B1 VH with V2M
VL: B1 VL with V41L, R59G, L108V
B4: C7 scFv (soluble, purified) (scFv, V domains shown)
VH: B1 VH with V2M, R87G
VL: B1 VL with V41I, R59G
notes: VH of clone C7, as in m3; linker, printed as (Gly4Ser)3; VL of clone C7, as in m3; Single band of 29-30 kDa; monomer by size exclusion chromatography; The 6xHis tag is named in the discussion (6xHis tag antibody); also called the scFv form; the purified C7 scFv; source: E. coli HB2151, periplasmic fraction, purified (His Trap excel)

Columns and labels:
H12M35-Fc = H12M35-Fc (Homo sapiens / Mus musculus chimera, UniProt P50895;Q9R069, chimera)
Chain of H12M35-Fc (Q9R069 other isoform, or with tags, fused parts or gaps chimera): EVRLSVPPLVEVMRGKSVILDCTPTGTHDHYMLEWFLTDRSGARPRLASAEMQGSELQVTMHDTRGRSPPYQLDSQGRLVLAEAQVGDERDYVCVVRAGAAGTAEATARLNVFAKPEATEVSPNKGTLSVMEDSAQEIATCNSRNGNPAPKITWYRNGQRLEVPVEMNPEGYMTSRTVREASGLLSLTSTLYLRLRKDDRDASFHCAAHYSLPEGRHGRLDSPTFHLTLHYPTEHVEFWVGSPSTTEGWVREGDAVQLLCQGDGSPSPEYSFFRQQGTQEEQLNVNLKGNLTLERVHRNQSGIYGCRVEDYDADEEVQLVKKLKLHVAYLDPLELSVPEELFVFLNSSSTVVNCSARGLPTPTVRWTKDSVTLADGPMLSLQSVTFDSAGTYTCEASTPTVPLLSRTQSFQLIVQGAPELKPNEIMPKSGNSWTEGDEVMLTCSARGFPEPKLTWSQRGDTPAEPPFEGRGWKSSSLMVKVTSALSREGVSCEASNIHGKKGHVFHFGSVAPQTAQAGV

[1] = target: recombinant Lu extracellular domain fused with a 6xHis-Tag (Sol-Lu) (Homo sapiens, UniProt P50895)
Chain of recombinant Lu extracellular domain fused with a 6xHis-Tag (Sol-Lu) (P50895 32-547): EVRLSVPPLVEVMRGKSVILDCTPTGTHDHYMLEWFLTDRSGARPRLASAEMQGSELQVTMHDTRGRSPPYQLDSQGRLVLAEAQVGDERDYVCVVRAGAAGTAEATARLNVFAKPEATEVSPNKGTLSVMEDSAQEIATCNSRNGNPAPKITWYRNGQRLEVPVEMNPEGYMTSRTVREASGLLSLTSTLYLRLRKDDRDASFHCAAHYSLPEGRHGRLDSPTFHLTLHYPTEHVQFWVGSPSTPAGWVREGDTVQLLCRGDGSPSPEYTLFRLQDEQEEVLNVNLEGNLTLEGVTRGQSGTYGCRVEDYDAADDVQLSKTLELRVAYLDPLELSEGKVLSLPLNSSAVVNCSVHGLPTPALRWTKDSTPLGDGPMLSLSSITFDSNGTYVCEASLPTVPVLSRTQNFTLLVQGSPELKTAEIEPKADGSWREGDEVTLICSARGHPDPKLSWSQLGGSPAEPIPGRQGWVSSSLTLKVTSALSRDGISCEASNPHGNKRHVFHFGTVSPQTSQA

[2] = target: T1, recombinant Lu extracellular domain fused with an Fc-Tag (Lu-Fc) (Homo sapiens, UniProt P50895)
T1 sequence (P50895 32-547): as above

[3] = target: T1, recombinant Lu extracellular domain …; experiment: SPR; BIAcore T200; Lu-Fc immobilized on a CM5 chip; C7 scFv (6.25, 12.5, 25, 50 and 100 nM) injected in 10 mM HEPES pH 7.4, 150 mM NaCl, 3 mM EDTA, 0.005% Tween 20 at 50 μl/min; nonlinear fitting; conditions: both partners purified

| Binder | binding result (H12M35-Fc) | binding result [1] | binding result [2] | Kd [3] | koff [3] | kon [3] |
| --- | --- | --- | --- | --- | --- | --- |
| B1 | binds | binds | binds |  |  |  |
| B2 | binds | binds | binds |  |  |  |
| B3 | binds | binds | binds |  |  |  |
| B4 |  |  |  | 36.6 nM | 0.0049 s⁻¹ | 135000 M⁻¹ s⁻¹ |
